# According to ChEMBL document CHEMBL4613261, “Metabolic and Pharmaceutical Aspects of Fluorinated Compounds” (J Med Chem, 2020):
# B1: Alanine racemase, biosynthetic (Escherichia coli K-12), P0A6B4 (protein)
# chain: MQAATVVINRRALRHNLQRLRELAPASKMVAVVKANAYGHGLLETARTLPDADAFGVARLEEALRLRAGGITKPVLLLEGFFDARDLPTISAQHFHTAVHNEEQLAALEEASLDEPVTVWMKLDTGMHRLGVRPEQAEAFYHRLTQCKNVRQPVNIVSHFARADEPKCGATEKQLAIFNTFCEGKPGQRSIAASGGILLWPQSHFDWVRPGIILYGVSPLEDRSTGADFGCQPVMSLTSSLIAVREHKAGEPVGYGGTWVSERDTRLGVVAMGYGDGYPRAAPSGTPVLVNGREVPIVGRVAMDMICVDLGPQAQDKAGDPVILWGEGLPVERIAEMTKVSAYELITRLTSRVAMKYVD
# B2: (Rattus norvegicus) (protein)
# chain: MAQTPAFNKPKVELHVHLDGAIKPETILYYGKKRGIDLPADTVEGLRNIIGMDKPLSLPDFLAKFDYYMPAIAGCREAIKRIAYEFVEMKAKEGVVYVEVRYSPHLLANSKVDPIPWNQAEGDLTPDEVVDLVNQGLQEGEQAFGIKVRSILCCMRHQPSWSPEVLELCKKYHQKTVVAMDLAGDETIEGSSLFPGHVEAYEGAVKDGIHRTVHAGEVGSAEVVREAVDILKTERVGHGYHTIEDEALYNRLLKENMHFEVCPWSSYLTGAWNPKTTHAVVRFKDDQANYSLNSDDPLIFKSTVDTDYQMVKKDMGFTEEEFKRLNINAAKSSFLPEDEKKELLERLYKEYQ
# Columns and labels:
# [1] = substrate: N[C@H](CF)C(=O)O; settings: Escherichia coli B
# Description: (§2) Substrate activity at Escherichia coli B alanine racemase assessed as Km
# [2] = substrate: N[C@@H](CF)C(=O)O; settings: Escherichia coli B
# Description: as §2
# [3] = substrate: C[C@H](N)C(=O)O; settings: Escherichia coli B
# Description: as §2
# [4] = substrate: OC[C@@H]1CC[C@H](n2cnc3c(F)ncnc32)O1; assay: (§1) Prodrug conversion in rat blood assessed as Km for adenosine deaminase-mediated didanosine formation by HPLC analysis; type: ADME, tissue-based
# [5] = substrate: OC[C@@H]1CC[C@H](n2cnc3c(Cl)ncnc32)O1; assay: as §1; type: ADME, tissue-based
# [6] = substrate: OC[C@@H]1CC[C@H](n2cnc3c(Br)ncnc32)O1; assay: as §1; type: ADME, tissue-based
Protein,Km [1] [µM],Km [2] [µM],Km [3] [µM],Km [4] [µM],Km [5] [µM],Km [6] [µM]
B1,2400,50,1300,,,
B2,,,,720,17000,16000
